Assay results published in PMC10066265, “Inhibitor-3 inhibits Protein Phosphatase 1 via a metal binding dynamic protein–protein interaction” (Nature Communications, 2023).
Several values for one entry are separate records, joined by “and”; a condition that tells them apart may be missing. Identical values can stand only once.

Columns and labels:
[1] = molecular target: T1, His6-PP1α_(7-330) (UniProt P62136 7-330); test: cell-based or functional assay
[2] = molecular target: T1, His6-PP1α_(7-330); test: SPR; His6-PP1 captured on a Ni-NTA sensorchip (NiHC200M), I3 variants injected; 25 °C; 20 mM Tris pH 8.0, 500 mM NaCl, 1 mM MnCl2, 0.5 mM TCEP, 0.05% Tween-20; one-to-one one state or one-to-one two state model; details: both partners purified
[3] = molecular target: T2, PP1α_(7-330) (UniProt P62136 7-330); test: SPR; His6-PP1 captured on Ni-NTA chip (NiHC200M), I3 variants injected; 25 °C; 20 mM Tris pH 8.0, 500 mM NaCl, 1 mM MnCl2, 0.5 mM TCEP, 0.05% Tween-20; one-to-one one state or one-to-one two state model (TraceDrawer); details: both partners purified
T2 construct: Protein Phosphatase 1 alpha (PP1α), residues 7-330; His6-PP1 was captured on the Ni-NTA sensor chip as the SPR ligand; Mn2+ in all buffers; also called Protein Phosphatase 1; His6-PP1; source: E. coli, purified (Ni-NTA, SEC)
T2 sequence (P62136 7-330): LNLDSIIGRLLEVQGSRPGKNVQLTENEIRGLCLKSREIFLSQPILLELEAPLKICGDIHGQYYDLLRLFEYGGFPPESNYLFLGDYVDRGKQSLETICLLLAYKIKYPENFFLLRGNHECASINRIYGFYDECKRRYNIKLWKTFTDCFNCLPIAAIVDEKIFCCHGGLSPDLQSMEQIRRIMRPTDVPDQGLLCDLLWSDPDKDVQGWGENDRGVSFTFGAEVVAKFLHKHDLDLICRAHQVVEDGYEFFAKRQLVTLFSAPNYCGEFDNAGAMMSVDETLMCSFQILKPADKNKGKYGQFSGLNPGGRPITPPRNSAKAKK

T1 sequence (P62136 7-330): as above

B1: SSS: I3_(27-68) C60S/C61S/C62S (domain or fragment, human, UniProt O60927 27-68, looked up)
chain: SLTIKLRKRKPEKKVEWTSDTVDNEHMGRRSSKSSSIYEKPR
notes: PPP1R11), human, residues 27-68; also called I3_(27-68)SSS; I3_(27-68) SSS; source: E. coli BL21 (DE3), purified (Ni-NTA, TEV, heat 95 °C, SEC); not shown: His6, N-terminal, cleaved; MBP, N-terminal, cleaved
Question: Which “IC50 of PP1 inhibition (dephosphorylation of the H3pT3 peptide, released Pi)” value (shortened to “IC50 of PP1 inhibition”) [1] does the source give for B1 here?
Answer: 380 nM

Question: What about the Kd [2] of the same binder?
Answer: 412 ± 6 nM

B2: CSS: I3_(27-68) C61S/C62S (domain or fragment, human, UniProt O60927 27-68, looked up)
chain: SLTIKLRKRKPEKKVEWTSDTVDNEHMGRRSSKCSSIYEKPR
notes: PPP1R11), human, residues 27-68, C61S/C62S; also called I3_27-68_CSS; source: E. coli BL21 (DE3), purified (Ni-NTA, TEV cleavage, heat, SEC); not shown: His6, N-terminal, cleaved; MBP, N-terminal, cleaved
Question: B2 was tested. Which Kd [3] did it give?
Answer: 20.7 nM and 21.6 nM

B3: SSC: I3_(27-68) C60S/C61S (domain or fragment, human, UniProt O60927 27-68, looked up)
chain: SLTIKLRKRKPEKKVEWTSDTVDNEHMGRRSSKSSCIYEKPR
notes: PPP1R11), human, residues 27-68, C60S/C61S; also called I3_27-68_SSC; source: E. coli BL21 (DE3), purified (Ni-NTA, TEV cleavage, heat, SEC); not shown: His6, N-terminal, cleaved; MBP, N-terminal, cleaved
Question: Which Kd [3] does the source give for B3 here?
Answer: 88 nM and 81.1 nM and 88.3 nM and 89.6 nM

B4: CSC: I3_(27-68) C61S (domain or fragment, human, UniProt O60927 27-68, looked up)
chain: SLTIKLRKRKPEKKVEWTSDTVDNEHMGRRSSKCSCIYEKPR
notes: PPP1R11), human, residues 27-68; source: E. coli BL21 (DE3), purified (Ni-NTA, TEV, heat 95 °C, SEC); not shown: His6, N-terminal, cleaved; MBP, N-terminal, cleaved
Question: How did the “IC50 of PP1 inhibition” value [1] turn out when B4 was run?
Answer: 158 nM

Question: What about the Kd [2] of the same binder?
Answer: 18.8 ± 0.9 nM

B5: CSC: I3_(27-68) C61S (domain or fragment, human, UniProt O60927 27-68, looked up)
chain: SLTIKLRKRKPEKKVEWTSDTVDNEHMGRRSSKCSCIYEKPR
notes: PPP1R11), human, residues 27-68, C61S; source: E. coli BL21 (DE3), purified (Ni-NTA, TEV cleavage, heat, SEC); not shown: His6, N-terminal, cleaved; MBP, N-terminal, cleaved
Question: B5 was tested. Which Kd [3] did it give?
Answer: 20.1 nM and 18.7 nM and 17.5 nM

B6: IY: I3_(27-68) I63A/Y64A (domain or fragment, human, UniProt O60927 27-68, looked up)
chain: SLTIKLRKRKPEKKVEWTSDTVDNEHMGRRSSKCCCAAEKPR
notes: PPP1R11), human, residues 27-68, I63A/Y64A; also called I3_(27-68) IY; source: E. coli BL21 (DE3), purified (Ni-NTA, TEV cleavage, heat, SEC); not shown: His6, N-terminal, cleaved; MBP, N-terminal, cleaved
Question: Which Kd [3] does the source give for B6 here?
Answer: 19 nM and 13.1 nM and 14.3 nM and 15.5 nM

B7: CSS: I3_(27-68) C61S/C62S (domain or fragment, human, UniProt O60927 27-68, looked up)
chain: SLTIKLRKRKPEKKVEWTSDTVDNEHMGRRSSKCSSIYEKPR
notes: as for B4
Question: Which “IC50 of PP1 inhibition” value [1] does the source give for B7 here?
Answer: 153 nM

Question: And the Kd [2]?
Answer: 21.2 ± 0.6 nM

B8: CCS: I3_(27-68) C62S (domain or fragment, human, UniProt O60927 27-68, looked up)
chain: SLTIKLRKRKPEKKVEWTSDTVDNEHMGRRSSKCCSIYEKPR
notes: PPP1R11), human, residues 27-68, C62S; source: E. coli BL21 (DE3), purified (Ni-NTA, TEV cleavage, heat, SEC); not shown: His6, N-terminal, cleaved; MBP, N-terminal, cleaved
Question: For B8, which Kd [3] is on record?
Answer: 16.1 nM and 17.4 nM and 28.3 nM

B9: SCC: I3_(27-68) C60S (domain or fragment, human, UniProt O60927 27-68, looked up)
chain: SLTIKLRKRKPEKKVEWTSDTVDNEHMGRRSSKSCCIYEKPR
notes: as for B4
Question: What does the source list for B9?
Answer: IC50 of PP1 inhibition (dephosphorylation of the H3pT3 peptide, released Pi) [1]: 243 nM; Kd [2]: 21.7 ± 3.1 nM

B10: SSS: I3_(27-68) C60S/C61S/C62S (domain or fragment, human, UniProt O60927 27-68, looked up)
chain: SLTIKLRKRKPEKKVEWTSDTVDNEHMGRRSSKSSSIYEKPR
notes: PPP1R11), human, residues 27-68, C60S/C61S/C62S; also called I3_27-68_60SSS62; I3_(27-68) SSS; source: E. coli BL21 (DE3), purified (Ni-NTA, TEV cleavage, heat, SEC); not shown: His6, N-terminal, cleaved; MBP, N-terminal, cleaved
Question: Which Kd [3] does the source give for B10 here?
Answer: 409 nM and 421 nM and 406 nM

Question: What about the koff [3] of the same binder?
Answer: 0.0719 s⁻¹ and 0.0774 s⁻¹ and 0.0728 s⁻¹ and 0.074 s⁻¹

Question: What about the kon [3] of the same binder?
Answer: 176000 M⁻¹ s⁻¹ and 184000 M⁻¹ s⁻¹ and 179000 M⁻¹ s⁻¹ and 180000 M⁻¹ s⁻¹
